Laboratory results as given in US20260217824A1 (Bristol-Myers Squibb, published 2026).
Positions count from the first letter of the chain named. Numbers in names are those of the source. Like-named read-outs stand apart in the source and are kept apart here.

How the values were obtained:
[1] = target: T1, FcγRIIA (CD32a-R131 variant) (human, UniProt P12318 36-218); assay: SPR, response as % of Rmax (maximum FcγR capacity), Example 10; set-up and concentrations not given
T1 sequence (looked up): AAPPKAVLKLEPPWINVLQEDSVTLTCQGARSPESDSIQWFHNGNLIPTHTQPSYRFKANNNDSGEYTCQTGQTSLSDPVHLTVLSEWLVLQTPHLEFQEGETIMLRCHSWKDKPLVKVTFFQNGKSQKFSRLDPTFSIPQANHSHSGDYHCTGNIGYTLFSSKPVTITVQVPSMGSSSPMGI

[2] = target: T2, FcγRIIA (CD32a-H131 variant) (human, UniProt P12318 36-218); assay: as above
T2 sequence (looked up): T1 sequence (looked up) with R132H

FcγRI (CD64) = FcγRI (CD64) (human, UniProt P12314 16-288); assay: as above
[3] = target: T3, FcγRIIIB (CD16b-NA2 variant) (human, UniProt O75015 17-200); assay: SPR sensorgrams, Example 10; response axis without unit, no time axis; set-up and concentrations not given
[4] = target: T4, FcγRIIIA (CD16a-V158 variant) (human, UniProt P08637 17-208); assay: as above
FcγRIIB (CD32b) [5] = target: T5, FcγRIIB (CD32b) (human, UniProt P31994 43-217); assay: as above
T5 sequence (looked up): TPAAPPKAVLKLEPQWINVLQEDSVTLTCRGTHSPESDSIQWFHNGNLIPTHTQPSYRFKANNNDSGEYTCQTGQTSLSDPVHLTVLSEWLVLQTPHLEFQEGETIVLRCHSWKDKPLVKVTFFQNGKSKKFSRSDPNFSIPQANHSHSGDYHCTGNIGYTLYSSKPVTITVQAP

[6] = target: T1, FcγRIIA (CD32a-R131 variant); assay: as above
[7] = target: T2, FcγRIIA (CD32a-H131 variant); assay: as above
[8] = target: T4, FcγRIIIA (CD16a-V158 variant); assay: as above; remark: listed apart in the source
FcγRIIB (CD32b) [9] = target: T5, FcγRIIB (CD32b); assay: as above; remark: listed apart in the source
[10] = target: T3, FcγRIIIB (CD16b-NA2 variant); assay: SPR, response as % of Rmax (maximum FcγR capacity), Example 10; set-up and concentrations not given
[11] = target: T6, cynomolgus TREM-1 on cells (cynomolgus); assay: in vivo receptor occupancy against serum concentration, Emax model, cynomolgus monkeys
T6 construct: Endogenous receptor in dosed monkeys; also called TREM-1 receptors on peripheral blood monocytes and granulocytes of cynomolgus monkeys
T6 chain: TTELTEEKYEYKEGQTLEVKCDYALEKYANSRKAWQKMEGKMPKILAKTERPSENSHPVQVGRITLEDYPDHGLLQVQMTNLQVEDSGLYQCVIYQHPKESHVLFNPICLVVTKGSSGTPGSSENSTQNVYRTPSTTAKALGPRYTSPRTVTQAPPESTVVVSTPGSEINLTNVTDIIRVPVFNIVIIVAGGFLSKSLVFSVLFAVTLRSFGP
Protocol: Upon antibody administration, pharmacokinetics, anti-drug antibodies (ADA), TREM-1 receptor occupancy (RO), and ex vivo pharmacodynamics responses were examined at pre-determined time points.
(§1) A direct-effect inhibitory model was used to describe the PD response. […] The observed (open circle) and model-predicted endpoints (solid line) are provided in FIGS. 16A (0.1 mg/kg subcutaneous dosing) and 16B (10 mg/kg subcutaneous dosing).

[12] = target: T7, CynoTREM1 (as named in Table 3) (cynomolgus); assay: SPR (Biacore)
T7 construct: also called cynomolgus TREM-1
T7 chain: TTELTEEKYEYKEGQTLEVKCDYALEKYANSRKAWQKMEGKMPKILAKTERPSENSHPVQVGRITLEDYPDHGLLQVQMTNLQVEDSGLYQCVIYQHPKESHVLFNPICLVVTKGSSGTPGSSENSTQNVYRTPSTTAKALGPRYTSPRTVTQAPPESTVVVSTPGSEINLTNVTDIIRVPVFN

[13] = target: T6, cynomolgus TREM-1 on cells; assay: cell-based or functional assay
[14] = target: T6, cynomolgus TREM-1 on cells; assay: estimate of the 2-compartment PK model with TMDD fitted to cynomolgus PK/RO/PD data (mAb affinity for TREM-1); cyno-model estimate (CV 12%) of the TMDD PK/PD fit, not a direct binding assay
Protocol: as §1

Chain of FcγRI (CD64) (P12314 16-288 limits assumed): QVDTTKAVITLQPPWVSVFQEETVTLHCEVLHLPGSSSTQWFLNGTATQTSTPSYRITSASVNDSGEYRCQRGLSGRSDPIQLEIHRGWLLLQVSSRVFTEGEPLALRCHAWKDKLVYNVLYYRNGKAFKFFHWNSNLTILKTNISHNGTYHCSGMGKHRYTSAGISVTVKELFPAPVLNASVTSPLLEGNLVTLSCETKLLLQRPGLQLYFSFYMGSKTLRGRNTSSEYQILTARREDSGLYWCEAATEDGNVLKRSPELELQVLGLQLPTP
T3 sequence (O75015 other isoform, or with tags, fused parts or gaps mutant limits assumed): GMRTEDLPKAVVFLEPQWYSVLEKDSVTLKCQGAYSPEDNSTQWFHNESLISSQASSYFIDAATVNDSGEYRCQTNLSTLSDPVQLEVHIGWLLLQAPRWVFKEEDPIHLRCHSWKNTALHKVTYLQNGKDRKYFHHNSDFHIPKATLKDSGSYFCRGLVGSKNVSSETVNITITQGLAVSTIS
T4 sequence (P08637 other isoform, or with tags, fused parts or gaps mutant limits assumed): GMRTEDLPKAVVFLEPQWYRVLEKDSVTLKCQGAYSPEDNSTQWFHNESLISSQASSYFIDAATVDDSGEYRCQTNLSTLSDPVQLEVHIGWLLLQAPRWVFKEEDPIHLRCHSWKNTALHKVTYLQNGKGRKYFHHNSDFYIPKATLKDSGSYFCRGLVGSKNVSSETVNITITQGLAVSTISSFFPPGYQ

B1: mAb 0318-IgG1-Aba (antibody)
heavy: not shown
light: DIVLTQSPDSLAVSLGERATINCRASQSVDTFDYSFLHWYQQKPGQPPKLLIYRASNLESGVPDRFSGSGSGTDFTLTISSLQAEDVAVYYCQQSNQDPYTFGQGTKLEIKRTVAAPSVFIFPPSDEQLKSGTASVVCLLNNFYPREAKVQWKVDNALQSGNSQESVTEQDSKDSTYSLSSTLTLSKADYEKHKVYACEVTHQGLSSPVTKSFNRGEC
notes: IgG1 constant region with K214R, C226S, C229S, P238S (EU); also called IgG1-Aba mod; FcAba-1
Q: Does B1 bind [1]?
A: no binding

Q: Does B1 bind [2]?
A: no binding

Q: Does B1 bind (FcγRI (CD64))?
A: binds

Q: Does B1 bind [3]?
A: no binding

Q: Does B1 bind [4]?
A: no binding

Q: Does B1 bind (FcγRIIB (CD32b) [5])?
A: no binding

B2: mAb 0318-IgG1.1f (antibody)
heavy: EVQLVESGGGLVQPGGSLKLSCAASGFTFSTYAMHWVRQASGKGLEWVGRIRTKSSNYATYYAASVKGRFTISRDDSKNTAYLQMNSLKTEDTAVYYCTRDMGIRRQFAYWGQGTLVTVSSASTKGPSVFPLAPSSKSTSGGTAALGCLVKDYFPEPVTVSWNSGALTSGVHTFPAVLQSSGLYSLSSVVTVPSSSLGTQTYICNVNHKPSNTKVDKRVEPKSCDKTHTCPPCPAPEAEGAPSVFLFPPKPKDTLMISRTPEVTCVVVDVSHEDPEVKFNWYVDGVEVHNAKTKPREEQYNSTYRVVSVLTVLHQDWLNGKEYKCKVSNKALPSSIEKTISKAKGQPREPQVYTLPPSREEMTKNQVSLTCLVKGFYPSDIAVEWESNGQPENNYKTTPPVLDSDGSFFLYSKLTVDKSRWQQGNVFSCSVMHEALHNHYTQKSLSLSPG
light: B1 light
notes: IgG1 constant region with L234A, L235E, G237A, A330S, P331S (EU)
Q: Does B2 bind [1]?
A: binds

Q: Does B2 bind (FcγRI (CD64))?
A: binds

B3: mAb 0318-IgG4-Aba (antibody)
heavy: not shown
light: B1 light
notes: IgG4 CH1 with IgG1 CH2 and CH3, C226S, C229S, P238S (EU); also called IgG4-Aba mod; FcAba-4
Q: Does B3 bind [6]?
A: no binding

Q: Does B3 bind [7]?
A: no binding

Q: Does B3 bind [8]?
A: no binding

Q: Does B3 bind (FcγRIIB (CD32b) [9])?
A: no binding

Q: Does B3 bind [10]?
A: no binding

Q: Does B3 bind (FcγRI (CD64))?
A: binds

B4: mAb 0318-IgG1.3f (antibody)
heavy: EVQLVESGGGLVQPGGSLKLSCAASGFTFSTYAMHWVRQASGKGLEWVGRIRTKSSNYATYYAASVKGRFTISRDDSKNTAYLQMNSLKTEDTAVYYCTRDMGIRRQFAYWGQGTLVTVSSASTKGPSVFPLAPSSKSTSGGTAALGCLVKDYFPEPVTVSWNSGALTSGVHTFPAVLQSSGLYSLSSVVTVPSSSLGTQTYICNVNHKPSNTKVDKRVEPKSCDKTHTCPPCPAPEAEGAPSVFLFPPKPKDTLMISRTPEVTCVVVDVSHEDPEVKFNWYVDGVEVHNAKTKPREEQYNSTYRVVSVLTVLHQDWLNGKEYKCKVSNKALPAPIEKTISKAKGQPREPQVYTLPPSREEMTKNQVSLTCLVKGFYPSDIAVEWESNGQPENNYKTTPPVLDSDGSFFLYSKLTVDKSRWQQGNVFSCSVMHEALHNHYTQKSLSLSPGK
light: B1 light
notes: IgG1 constant region with L234A, L235E, G237A (EU)
Q: How did the EC50 [11] turn out when B4 was run?
A: 1.6 nM

Q: Does B4 bind [1]?
A: binds

Q: Does B4 bind (FcγRI (CD64))?
A: binds

Q: What about the Kd [12] of the same binder?
A: 3.4 nM

Q: What about the “IC50 (nM), estimate of the cynomolgus PK/PD model” value [13] of the same binder?
A: 1.9 nM

Q: What about the Kd [14] of the same binder?
A: 0.64 nM
